Experimental data: PMC4706430 (2016)

Target: kallikrein (human, UniProt P03952 20-638)
Sequence (P03952 20-638): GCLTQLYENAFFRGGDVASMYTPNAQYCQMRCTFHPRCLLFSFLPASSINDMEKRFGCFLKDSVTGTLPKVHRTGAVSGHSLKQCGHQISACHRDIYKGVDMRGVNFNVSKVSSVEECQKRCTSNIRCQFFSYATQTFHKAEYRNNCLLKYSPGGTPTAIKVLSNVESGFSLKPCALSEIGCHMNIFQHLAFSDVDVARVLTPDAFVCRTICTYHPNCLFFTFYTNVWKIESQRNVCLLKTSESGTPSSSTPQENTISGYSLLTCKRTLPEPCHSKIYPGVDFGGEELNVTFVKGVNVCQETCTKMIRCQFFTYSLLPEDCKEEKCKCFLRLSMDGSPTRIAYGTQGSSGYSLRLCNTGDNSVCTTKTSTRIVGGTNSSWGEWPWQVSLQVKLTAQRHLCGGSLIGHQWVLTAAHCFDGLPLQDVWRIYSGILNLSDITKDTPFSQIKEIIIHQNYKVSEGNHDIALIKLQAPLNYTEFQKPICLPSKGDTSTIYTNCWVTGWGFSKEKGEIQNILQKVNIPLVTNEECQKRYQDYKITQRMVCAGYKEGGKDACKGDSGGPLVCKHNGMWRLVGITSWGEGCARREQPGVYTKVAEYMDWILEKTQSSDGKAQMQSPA

B1: Boophilin (natural protein)
chain: QRNGFCRLPADEGICKALIPRFYFNTETGKCTMFSYGGCGGNENNFETIEDCQKACGAPERVSDFEGADFKTGCEPAADSGSCAGQLERWFYNVRSGECETFVYGGCGGNDNNYESEEECELVCKNM
modifications: N-terminus blocked (Edman degradation)
- Ki: 919 nM
